{"source": "patent US20010010922", "key": {"[1]": {"tested_on": "GST-BCL6ΔZFAla333,343 fusion protein"}, "[2]": {"tested_on": "GST-BCL6ΔZFAla333 fusion protein"}, "[3]": {"tested_on": "GST-BCL6 fusion protein (full-length BCL-6)"}}, "data": [{"substance": "Recombinant ERK2 (New England Biolabs)", "values": [{"measurement": "phosphorylation in ERK2 kinase assay in vitro ([gamma-32P]-ATP)", "setting": "[1]", "value": "phosphorylated at much lower levels than wild type BCL-6, with BCL-6Ala333,343 displaying the lowest levels"}, {"measurement": "phosphorylation in ERK2 kinase assay in vitro ([gamma-32P]-ATP)", "setting": "[2]", "value": "phosphorylated at much lower levels than wild type BCL-6"}, {"measurement": "phosphorylation in ERK2 kinase assay in vitro ([gamma-32P]-ATP)", "setting": "[3]", "value": "purified recombinant MAPK (ERK-2) can phosphorylate GST-BCL-6 fusion proteins in vitro"}]}]}
